# T1: human TL1A, soluble, CHO-expressed, residues 72-251 of SEQ ID NO:244 with N-terminal His6-tag (human, UniProt O95150 72-251)
# T1 sequence: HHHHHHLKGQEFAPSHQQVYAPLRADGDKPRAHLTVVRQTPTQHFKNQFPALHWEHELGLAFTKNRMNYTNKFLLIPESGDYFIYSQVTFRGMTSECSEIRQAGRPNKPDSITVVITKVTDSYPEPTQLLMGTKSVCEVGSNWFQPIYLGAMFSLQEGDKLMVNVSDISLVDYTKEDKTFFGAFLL
# T2: Fhm, hTL1A(Q167R), soluble, CHO-expressed, residues 72-251 of SEQ ID NO:246 (human, UniProt O95150 72-251)
# T2 construct: also called Fhm (CHO); FHM (CHO)
# T2 chain: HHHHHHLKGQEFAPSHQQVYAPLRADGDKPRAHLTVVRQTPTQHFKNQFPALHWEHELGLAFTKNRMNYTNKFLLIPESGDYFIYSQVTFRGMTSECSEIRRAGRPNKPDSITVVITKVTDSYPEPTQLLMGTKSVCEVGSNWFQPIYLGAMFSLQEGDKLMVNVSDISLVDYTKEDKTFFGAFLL
# T3: full length human TL1A expressed on HEK293 cells (human, UniProt O95150 1-251)
# T3 construct: also called HEK293/hTL1A; cell-surface hTL1A
# T3 sequence: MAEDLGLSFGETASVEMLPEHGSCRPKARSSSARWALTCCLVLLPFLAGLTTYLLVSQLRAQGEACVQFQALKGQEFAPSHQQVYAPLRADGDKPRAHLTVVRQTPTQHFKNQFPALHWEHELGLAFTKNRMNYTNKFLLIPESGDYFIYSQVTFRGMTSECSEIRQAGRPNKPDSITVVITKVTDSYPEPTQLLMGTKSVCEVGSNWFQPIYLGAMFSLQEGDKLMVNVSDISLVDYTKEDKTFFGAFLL
# T4: full length rat TL1A expressed on HEK293 cells (rat, UniProt Q8K3Y7 1-252)
# T4 sequence: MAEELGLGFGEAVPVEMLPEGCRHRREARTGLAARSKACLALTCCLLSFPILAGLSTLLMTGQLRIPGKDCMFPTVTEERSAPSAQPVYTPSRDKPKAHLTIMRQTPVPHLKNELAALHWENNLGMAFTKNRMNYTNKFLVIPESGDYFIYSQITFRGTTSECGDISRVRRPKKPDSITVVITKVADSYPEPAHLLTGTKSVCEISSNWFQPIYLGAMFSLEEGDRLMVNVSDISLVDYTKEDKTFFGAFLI
# How the values were obtained:
# [1] = target: T1, human TL1A, soluble, CHO-expressed, …; test: cell-based or functional assay
# [2] = target: T2, Fhm, hTL1A(Q167R), soluble, …; test: ELISA, blocks FHM (10 pM) binding hDcR3-Fc; blocking of FHM binding to DcR3
# Description: The ability of antibodies to block human TL1A binding to its cognate receptors, the DR3 and DcR3 receptors, was measured using a competition sandwich ELISA. In addition, blocking of a human TL1A variant FHM (human TL1A Q167R) and the cynomolgus monkey (Macaca fascicularis) TL1A (MfTL1A) protein binding to the human DR3 or DcR3 receptors was measured in the same manner. Constant amounts of biotinylated human TL1A or FHM (both expressed with a 6-His tag in CHO cells) or biotinylated MfTL1A (expressed in CHO cells) were separately titrated with varying amounts of antibodies. The antibody-protein complexes were incubated in solution (1 hr, 25° C.) and then transferred to microtiter plates coated with human DR3 (hDR3) or human DcR3 (hDcR3) expressed as human IgG1 Fc fusion proteins. After one hour at 25° C. the wells were washed, and bound human or monkey TL1A was detected with streptavidin conjugated with horseradish peroxidase (HRP). Wells were developed with a TMB solution to produce a colorimetric reaction and quenched with aqueous sulfuric acid before reading absorbance at 450 nm on a Perkin-Elmer Victor X5 plate reader. A sigmoidal dose-response curve was fit to the data using the Prism™ data analysis package. […] Both fully human anti-hTL1A mAbs and comparator antibodies, i.e., control mAb1 (an anti-hTL1A antibody with heavy and light chain variable domains having the amino acid sequences corresponding to SEQ ID NOS:21 and 27, respectively, of US 2009/0280116) and control mAb3 (an anti-hTL1A antibody with heavy and light chain variable domains having the amino acid sequences corresponding to SEQ ID NOS:57 and 48, respectively, of US 2009/0280116), were included in the study. NB: No binding under the conditions tested; NT: Not tested. Concentrations of biotinylated soluble ligands: (1) 150 pM; (2) 500 pM; (3) 10 pM; and (4) 50 pM.
# [3] = target: T3, full length human TL1A expressed on …; test: flow, HEK293/hTL1A, mAb 1 ug/ml + 0.1 ug/ml soluble hTL1A
# Description: Human embryonic kidney 293 cells stably transfected to over-express cell-surface hTL1A were first stained in a flow cytometric experiment with eight anti-hTL1A antibodies at four concentrations (1, 0.1, 0.01, and 0.003 μg/ml). […] The lowest antibody concentration providing significant staining levels was then used in a competition binding experiment. A negative isotype control antibody (human IgG4) was used at 1 μg/ml to define the background signal. For the competition experiment, eight antibody samples, at the minimal concentrations identified above, were first treated with soluble hTL1A expressed from CHO cells at concentrations ranging from 0.03 μg/ml to 10 μg/ml. After pre-incubation for 30 min on ice, the antibody/hTL1A mixture was added to 293/HEK-hTL1A cells that had been isolated by centrifugation in a 96-well conical plate. After incubation for an additional 10 minutes on ice, the cells were washed. The secondary reagent, anti-h Fcγ-APC F(ab′)₂, was added to all wells at a 200-fold dilution to detect bound antibodies. Samples were incubated for 15 minutes on ice, away from light, and then washed. Cells were processed on an BD™ LSR II Flow Cytometer (BD Biosciences) to detect anti-hTL1A antibodies bound to the cell surface, and data were analyzed using FlowJo software (version 8.8.6; Tree Star Inc.). Maximum signal: Anti-hTL1A antibody binding in the absence of soluble hTL1A; Minimum signal: Signal recorded when […] of isotype control antibody was added in place of the anti-hTL1A antibody. NT: Not tested.
# [4] = target: T4, full length rat TL1A expressed on …; test: cell-based or functional assay
"% Blocking IFN-g, D1, 1 ug/ml mAb [1] [%]","% Blocking IFN-g, D1, 3 ug/ml mAb [1] [%]","% Blocking IFN-g, D2, 1 ug/ml mAb [1] [%]","% Blocking IFN-g, D2, 3 ug/ml mAb [1] [%]","% Blocking IFN-g, D3, 1 ug/ml mAb [1] [%]","% Blocking IFN-g, D3, 3 ug/ml mAb [1] [%]","% Blocking IFN-g, D4, 1 ug/ml mAb [1] [%]","% Blocking IFN-g, D4, 3 ug/ml mAb [1] [%]","% Blocking IFN-g, D5, 1 ug/ml mAb [1] [%]","% Blocking IFN-g, D5, 3 ug/ml mAb [1] [%]","% Blocking IFN-g, D6, 1 ug/ml mAb [1] [%]","% Blocking IFN-g, D6, 3 ug/ml mAb [1] [%]","% Blocking IFN-g, D7, 1 ug/ml mAb [1] [%]","% Blocking IFN-g, D7, 3 ug/ml mAb [1] [%]","% Blocking IFN-g, D8, 1 ug/ml mAb [1] [%]","% Blocking IFN-g, D8, 3 ug/ml mAb [1] [%]","% Blocking IFN-g, D9, 1 ug/ml mAb [1] [%]","% Blocking IFN-g, D9, 3 ug/ml mAb [1] [%]","% Blocking IFN-g, D10, 1 ug/ml mAb [1] [%]","% Blocking IFN-g, D10, 3 ug/ml mAb [1] [%]",Binder,other results
95,100,100,100,80,95,90,100,100,100,50,100,10,100,100,100,50,100,0,80,"H4H1804N (antibody, human IgG4 S228P, V domains shown, human IgG4(S108P) form of H2M1804N) VH: QVQLHQWGAGLLKPSETLSLTCAVSGVSFSDYHWAWIRQSPGKGLEWIGDINHRGRTNYNPSLKSRVTISLDTSGNPFSLKLTSVTAADTAVYYCARDFPNWVFDSWGQGILVTVSS VL: EIVLSQSPGTLSLSPGERATLSCRASQSVSSSFLAWYQQYPGQAPRLLIYGASRRATGIPDRFRGSGSGTDFTLTISRLEPEDFAVYYCQQYGSSPLTFGGGTKVENK","IC50, reporter + 10,000 TL1A cells [4]: 3.99 nM"
90,95,100,100,70,95,85,100,45,90,80,80,60,90,85,100,50,90,95,100,"H4H1725P (antibody, human IgG4 S228P, V domains shown) VH: QVQLVQSGAEVKKPGASVKVSCKASGYTFTGYYMHWVRQAPGQGLEWMGWIKPKSGGTNYVQKFQGRVTMTRDTSINTAYMELNNLKSDDTAVYYCATGGSQDASDFWGQGTMVTVSS VL: DIQMTQSPSSVSASVGGRVTITCRASQDISIWLAWYQQKPGKAPNLLIYAASSLQSGVPSRFSGSGSGTDFTLTISSLQPEDFATYYCQQADSFPLTFGGGTKVEIK","IC50, reporter + 10,000 TL1A cells [4]: 190 nM"

# More lines, now with the values behind:
Binder,"% Blocking IFN-g, D1, 1 ug/ml mAb [1] [%]","% Blocking IFN-g, D1, 3 ug/ml mAb [1] [%]","% Blocking IFN-g, D2, 1 ug/ml mAb [1] [%]","% Blocking IFN-g, D2, 3 ug/ml mAb [1] [%]","% Blocking IFN-g, D3, 1 ug/ml mAb [1] [%]","% Blocking IFN-g, D3, 3 ug/ml mAb [1] [%]","% Blocking IFN-g, D4, 1 ug/ml mAb [1] [%]","% Blocking IFN-g, D4, 3 ug/ml mAb [1] [%]","% Blocking IFN-g, D5, 1 ug/ml mAb [1] [%]","% Blocking IFN-g, D5, 3 ug/ml mAb [1] [%]","% Blocking IFN-g, D6, 1 ug/ml mAb [1] [%]","% Blocking IFN-g, D6, 3 ug/ml mAb [1] [%]","% Blocking IFN-g, D7, 1 ug/ml mAb [1] [%]","% Blocking IFN-g, D7, 3 ug/ml mAb [1] [%]","% Blocking IFN-g, D8, 1 ug/ml mAb [1] [%]","% Blocking IFN-g, D8, 3 ug/ml mAb [1] [%]","% Blocking IFN-g, D9, 1 ug/ml mAb [1] [%]","% Blocking IFN-g, D9, 3 ug/ml mAb [1] [%]","% Blocking IFN-g, D10, 1 ug/ml mAb [1] [%]","% Blocking IFN-g, D10, 3 ug/ml mAb [1] [%]",other results
"H4H1805N (antibody, human IgG4 S228P, V domains shown, human IgG4(S108P) form of H2M1805N) VH: QVQLQQWGAGLLKPSETLSLTCAVYGGSFTGFYWSWIRQPPGKGLEWIGEINHRGNTNYNPSLKSRVTMSVDTSKNQFSLNMISVTAADTAMYFCASPFYDFWSGSDYWGQGTLVTVSS VL: DIMLTQTPLTSPVTLGQPASISCKSSQSLVHSDGNTYLSWLQQRPGQPPRLLFYKISNRFSGVPDRFSGSGAGTDFTLKISRVEAEDVGVYYCMQATQFPLTFGGGTKVEIK",100,100,100,100,90,95,100,100,100,80,100,100,100,100,100,100,90,70,100,100,IC50 [2]: 0.436 nM
"H4H1681N (antibody, human IgG4 S228P, V domains shown) VH: EVQLLESGGGLVQPGKSLRLSCAVSGFTFSTYGMNWVRQAPGKGLEWVSSISGTGRTTYHADSVQGRFTVSRDNSKNILYLQMNSLRADDTAVYFCTKERGDYYYGVFDYWGQGTLVTVSS VL: DIQMTQSPSTLSASVGDRVTITCRASQTISSWLAWYQQTPEKAPKLLIYAASNLQSGVPSRFSGSGSGTEFTLTISSLQPDDFATYYCQQYHRSWTFGQGTKVEIT",,,,,,,,,,,,,,,,,,,,,MFI [3]: 327; IC50 [2]: 0.09 nM
"H4H1745P (antibody, human IgG4 S228P, V domains shown) VH: EVQLVESGGGLVQPGGSLRLSCAASGFTFSSYAMTWVRQAPGKGLEWVSGVSGRGGSTYYADSVKGRFTISRDNSKNTLYLQMNSLRAEDTAVYYCAYWDISSFDYWGQGTLVTVSS VL: DIQLTQSPSFLSASVGDRVTITCWASQGISTYLAWYQQKPGKTPKLLIYAASTLQSGVPSRFSGSGSGTDFTLTISSLQPEDFATYYCQQFNSYPLTFGGGTKVEIK",,,,,,,,,,,,,,,,,,,,,MFI [3]: 93.1
"H4H1742P (antibody, human IgG4 S228P, V domains shown) VH: EVQLVESGGGLVQPGGSLRLSCAASGFTFSNYVMNWVRQAPGKGLEWVSVISGSGGSTHYADSVKGRFTISRDNSKDALYLQMNSLRAEDTAVYYCAKGPLEAYYYYNGMDVWGQGTTVTVSS VL: DIQLTQSPSFLSASVGDRVTITCWASQAISSYLAWYQHKPGRAPKLLIYSTSTLQSGVPSRFSGSGSGTEFTLTISSLQPEDFATYYCQQLNSYPTFGQGTKLEIK",,,,,,,,,,,,,,,,,,,,,MFI [3]: 79.4

# Reference: patent US20140120109A1 (Regeneron, published 2014)
